Data published in patent publication US20030068675, “Position dependent recognition of GNN nucleotide triplets by zinc fingers” (published 2003).

Columns and labels:
Assay in all cases: EMSA
Settings in all cases: tags: MBP fusion
ZFP SBS#1105 = ZFP SBS#1105 (synthetic)
Summary of the method: (§1)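 Purified ZFP was titrated against labeled double-stranded target (1 nM or lower, at least 10-fold below expected Kd) carrying the natural binding site with flanks. Binding buffer was 10 mM Tris pH 7.5, 100 mM KCl, 1 mM MgCl2, 0.1 mM ZnCl2, 5 mM DTT, 10% glycerol, 0.02% BSA, with equilibration for at least 45 min. Bound and free target were separated on a 10% polyacrylamide gel.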

ZFP SBS#1106 = ZFP SBS#1106 (synthetic)
ZFP SBS#1106 (synthetic), sequence (chain, as listed by the source): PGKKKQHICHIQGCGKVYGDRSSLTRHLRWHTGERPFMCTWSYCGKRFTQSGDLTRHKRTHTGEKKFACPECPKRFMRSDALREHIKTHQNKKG
Summary of the method: as §1

ZFP SBS#1075 = molecular target: T1, ZFP SBS#1075 (synthetic)
T1 chain: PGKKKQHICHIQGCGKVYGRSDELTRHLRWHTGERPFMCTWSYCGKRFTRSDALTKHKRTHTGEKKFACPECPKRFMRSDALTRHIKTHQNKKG
Summary of the method: as §1

ZFP SBS#1070 = molecular target: T2, ZFP SBS#1070 (synthetic, UniProt P08047)
T2 chain: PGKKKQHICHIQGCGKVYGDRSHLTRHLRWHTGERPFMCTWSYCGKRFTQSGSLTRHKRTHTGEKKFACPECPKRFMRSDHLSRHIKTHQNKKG
Summary of the method: as §1

ZFP SBS#1071 = molecular target: T3, ZFP SBS#1071 (synthetic, UniProt P08047)
T3 chain: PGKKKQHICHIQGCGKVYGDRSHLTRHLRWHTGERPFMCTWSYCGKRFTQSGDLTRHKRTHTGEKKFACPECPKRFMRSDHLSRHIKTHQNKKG
Summary of the method: as §1

ZFP SBS#1095 = molecular target: T4, ZFP SBS#1095 (synthetic)
T4 chain: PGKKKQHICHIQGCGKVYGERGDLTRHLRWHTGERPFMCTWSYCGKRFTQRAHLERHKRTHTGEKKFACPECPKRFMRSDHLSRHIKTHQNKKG
Summary of the method: as §1

ZFP SBS#1096 = molecular target: T5, ZFP SBS#1096 (synthetic)
T5 chain: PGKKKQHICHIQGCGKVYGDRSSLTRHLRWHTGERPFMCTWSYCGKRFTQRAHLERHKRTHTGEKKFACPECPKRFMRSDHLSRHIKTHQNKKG
Summary of the method: as §1

ZFP SBS#1085 = molecular target: T6, ZFP SBS#1085 (synthetic)
T6 chain: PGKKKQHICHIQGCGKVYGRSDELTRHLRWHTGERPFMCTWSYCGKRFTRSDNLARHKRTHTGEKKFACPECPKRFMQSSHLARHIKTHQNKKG
Summary of the method: as §1

ZFP SBS#1084 = molecular target: T7, ZFP SBS#1084 (synthetic)
T7 chain: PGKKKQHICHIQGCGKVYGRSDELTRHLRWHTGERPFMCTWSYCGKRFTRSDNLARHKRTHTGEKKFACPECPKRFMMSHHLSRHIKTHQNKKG
Summary of the method: as §1

ZFP SBS#1079 = ZFP SBS#1079 (synthetic, UniProt P08047)
Summary of the method: as §1

ZFP SBS#1078 = ZFP SBS#1078 (synthetic, UniProt P08047)
ZFP SBS#1078, sequence (P08047 other isoform, or with tags, fused parts or gaps): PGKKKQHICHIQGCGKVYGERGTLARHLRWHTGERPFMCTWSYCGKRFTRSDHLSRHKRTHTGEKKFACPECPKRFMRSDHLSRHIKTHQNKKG
Summary of the method: as §1

ZFP SBS#1068 = molecular target: T8, ZFP SBS#1068 (synthetic)
T8 chain: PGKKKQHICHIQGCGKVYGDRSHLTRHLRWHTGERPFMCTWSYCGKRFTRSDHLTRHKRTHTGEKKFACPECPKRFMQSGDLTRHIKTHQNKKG
Summary of the method: as §1

ZFP SBS#1089 = molecular target: T9, ZFP SBS#1089 (synthetic)
T9 chain: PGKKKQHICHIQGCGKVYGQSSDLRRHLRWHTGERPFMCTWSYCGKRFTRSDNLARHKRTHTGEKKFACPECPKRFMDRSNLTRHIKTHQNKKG
Summary of the method: as §1

ZFP SBS#1081 = molecular target: T10, ZFP SBS#1081 (synthetic, UniProt P08047)
T10 chain: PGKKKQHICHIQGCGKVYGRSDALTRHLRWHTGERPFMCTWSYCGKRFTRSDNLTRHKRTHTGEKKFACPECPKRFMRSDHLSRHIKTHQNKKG
Summary of the method: as §1

ZFP SBS#463 = molecular target: T11, ZFP SBS#463 (synthetic)
T11 chain: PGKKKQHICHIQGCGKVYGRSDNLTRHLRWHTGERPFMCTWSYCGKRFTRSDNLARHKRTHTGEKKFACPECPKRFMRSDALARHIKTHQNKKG
Summary of the method: as §1

ZFP SBS#464 = molecular target: T12, ZFP SBS#464 (synthetic)
T12 chain: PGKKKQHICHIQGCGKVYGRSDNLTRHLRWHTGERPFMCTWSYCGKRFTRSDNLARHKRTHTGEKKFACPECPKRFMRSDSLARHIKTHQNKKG
Summary of the method: as §1

ZFP SBS#1088 = molecular target: T13, ZFP SBS#1088 (synthetic, UniProt P08047)
T13 chain: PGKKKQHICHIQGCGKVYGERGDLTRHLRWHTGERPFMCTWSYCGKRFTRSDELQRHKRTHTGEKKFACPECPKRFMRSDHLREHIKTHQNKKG
Summary of the method: as §1

ZFP SBS#1087 = molecular target: T14, ZFP SBS#1087 (synthetic, UniProt P08047)
T14 chain: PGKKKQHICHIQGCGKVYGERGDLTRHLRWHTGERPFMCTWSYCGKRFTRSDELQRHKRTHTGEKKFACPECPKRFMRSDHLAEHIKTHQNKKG
Summary of the method: as §1

ZFP SBS#1069 = molecular target: T15, ZFP SBS#1069 (synthetic)
T15 chain: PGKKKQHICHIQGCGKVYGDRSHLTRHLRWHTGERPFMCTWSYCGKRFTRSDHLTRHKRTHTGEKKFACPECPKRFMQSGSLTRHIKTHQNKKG
Summary of the method: as §1

ZFP SBS#1103 = ZFP SBS#1103 (synthetic)
ZFP SBS#1103 (synthetic), sequence (chain, as listed by the source): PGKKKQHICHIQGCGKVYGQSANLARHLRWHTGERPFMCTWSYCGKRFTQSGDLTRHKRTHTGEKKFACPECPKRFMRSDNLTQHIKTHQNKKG
Summary of the method: as §1

ZFP SBS#1102 = molecular target: T16, ZFP SBS#1102 (synthetic)
T16 chain: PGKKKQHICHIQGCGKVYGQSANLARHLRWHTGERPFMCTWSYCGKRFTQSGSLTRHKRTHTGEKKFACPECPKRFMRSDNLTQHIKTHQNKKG
Summary of the method: as §1

ZFP SBS#1082 = molecular target: T17, ZFP SBS#1082 (synthetic)
T17 chain: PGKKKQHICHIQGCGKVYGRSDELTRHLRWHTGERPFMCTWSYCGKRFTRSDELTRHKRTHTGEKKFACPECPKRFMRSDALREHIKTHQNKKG
Summary of the method: as §1

ZFP SBS#980 = molecular target: T18, ZFP SBS#980 (synthetic, UniProt P08047)
T18 chain: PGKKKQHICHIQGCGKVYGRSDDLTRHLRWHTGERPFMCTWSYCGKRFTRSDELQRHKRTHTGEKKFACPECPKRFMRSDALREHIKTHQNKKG
Summary of the method: as §1

ZFP SBS#979 = ZFP SBS#979 (synthetic, UniProt P08047)
Summary of the method: as §1

ZFP SBS#1086 = ZFP SBS#1086 (synthetic)
Summary of the method: as §1

ZFP SBS#1094 = molecular target: T19, ZFP SBS#1094 (synthetic)
T19 chain: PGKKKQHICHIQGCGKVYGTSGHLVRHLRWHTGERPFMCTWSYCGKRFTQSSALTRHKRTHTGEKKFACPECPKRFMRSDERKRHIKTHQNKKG
Summary of the method: as §1

ZFP SBS#1097 = molecular target: T20, ZFP SBS#1097 (synthetic)
T20 chain: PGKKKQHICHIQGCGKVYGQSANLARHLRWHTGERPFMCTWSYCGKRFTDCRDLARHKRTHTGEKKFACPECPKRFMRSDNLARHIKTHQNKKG
Summary of the method: as §1

ZFP SBS#1077 = molecular target: T21, ZFP SBS#1077 (synthetic)
T21 chain: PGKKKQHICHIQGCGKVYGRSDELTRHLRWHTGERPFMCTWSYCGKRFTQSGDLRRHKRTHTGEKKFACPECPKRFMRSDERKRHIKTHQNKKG
Summary of the method: as §1

ZFP SBS#1076 = molecular target: T22, ZFP SBS#1076 (synthetic)
T22 chain: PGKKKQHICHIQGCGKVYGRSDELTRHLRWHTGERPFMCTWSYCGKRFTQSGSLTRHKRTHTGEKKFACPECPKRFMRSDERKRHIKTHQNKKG
Summary of the method: as §1

ZFP SBS#1080 = molecular target: T23, ZFP SBS#1080 (synthetic)
T23 chain: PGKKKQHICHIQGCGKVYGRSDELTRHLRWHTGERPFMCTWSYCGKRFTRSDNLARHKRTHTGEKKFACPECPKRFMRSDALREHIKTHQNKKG
Summary of the method: as §1

ZFP SBS#1072 = ZFP SBS#1072 (synthetic)
ZFP SBS#1072 (synthetic), sequence (chain, as listed by the source): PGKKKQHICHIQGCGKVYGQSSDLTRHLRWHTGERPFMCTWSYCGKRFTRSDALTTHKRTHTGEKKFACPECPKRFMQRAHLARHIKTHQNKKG
Summary of the method: as §1

ZFP SBS#1073 = ZFP SBS#1073 (synthetic)
ZFP SBS#1073 (synthetic), sequence (chain, as listed by the source): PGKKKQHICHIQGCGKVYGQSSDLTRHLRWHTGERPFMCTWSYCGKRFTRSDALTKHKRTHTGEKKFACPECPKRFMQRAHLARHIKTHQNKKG
Summary of the method: as §1

ZFP SBS#1083 = molecular target: T24, ZFP SBS#1083 (synthetic)
T24 chain: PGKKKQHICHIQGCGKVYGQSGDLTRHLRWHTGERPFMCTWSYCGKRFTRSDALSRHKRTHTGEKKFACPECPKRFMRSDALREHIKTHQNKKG
Summary of the method: as §1

ZFP SBS#1105 (synthetic), sequence (chain, as listed by the source): as the sequence (P08047 other isoform, or with tags, fused parts or gaps) above, with T23D, A25T, R50Q, D52G, H53D, S55T, H81A, S83R, R84E counted along it

B1: CTGGCAGCC (dsDNA)
DNA 1: CTGGCAGCC
DNA 2: GGCTGCCAG
Kd (ZFP SBS#1105): 2.45 nM | Kd (ZFP SBS#1106): 0.19 nM

B2: GTGTTGGCG (dsDNA)
DNA 1: GTGTTGGCG
DNA 2: CGCCAACAC
Kd (ZFP SBS#1075): 0.915 nM

B3: GGGGCAGGC (dsDNA)
DNA 1: GGGGCAGGC
DNA 2: GCCTGCCCC
Kd (ZFP SBS#1070): 0.456 nM | Kd (ZFP SBS#1071): 0.2 nM

B4: GGGGGAGCC (dsDNA)
DNA 1: GGGGGAGCC
DNA 2: GGCTCCCCC
Kd (ZFP SBS#1095): 0.395 nM | Kd (ZFP SBS#1096): 0.019 nM

B5: GGTGAGGCG (dsDNA)
DNA 1: GGTGAGGCG
DNA 2: CGCCTCACC
Kd (ZFP SBS#1085): 0.46 nM | Kd (ZFP SBS#1084): 0.5 nM

B6: GGGGGGGCC (dsDNA)
DNA 1: GGGGGGGCC
DNA 2: GGCCCCCCC
Kd (ZFP SBS#1079): 4.1 nM | Kd (ZFP SBS#1078): 0.2 nM

B7: GCAGGGGGC (dsDNA)
DNA 1: GCAGGGGGC
DNA 2: GCCCCCTGC
Kd (ZFP SBS#1068): 2.05 nM

B8: GACGAGGCT (dsDNA)
DNA 1: GACGAGGCT
DNA 2: AGCCTCGTC
Kd (ZFP SBS#1089): 0.171 nM

B9: GGGGAGGTG (dsDNA)
DNA 1: GGGGAGGTG
DNA 2: CACCTCCCC
Kd (ZFP SBS#1081): 0.05 nM

B10: GTGGAGGAGA (dsDNA)
DNA 1: GTGGAGGAGA
DNA 2: TCTCCTCCAC
Kd (ZFP SBS#463): 0.5 nM | Kd (ZFP SBS#464): 0.4 nM

B11: CGGGCGGCC (dsDNA)
DNA 1: CGGGCGGCC
DNA 2: GGCCGCCCG
Kd (ZFP SBS#1088): 0.905 nM | Kd (ZFP SBS#1087): 1.24 nM

B12: GCAGGCGGT (dsDNA)
DNA 1: GCAGGCGGT
DNA 2: ACCGCCTGC
Kd (ZFP SBS#1069): 0.1 nM

B13: AAGGCAGAA (dsDNA)
DNA 1: AAGGCAGAA
DNA 2: TTCTGCCTT
Kd (ZFP SBS#1103): 1.4 nM | Kd (ZFP SBS#1102): 8.15 nM

B14: CTGGCGGCG (dsDNA)
DNA 1: CTGGCGGCG
DNA 2: CGCCGCCAG
Kd (ZFP SBS#1082): 0.152 nM | Kd (ZFP SBS#980): 2.2 nM | Kd (ZFP SBS#979): 1.59 nM

B15: GGGGCTCGG (dsDNA)
DNA 1: GGGGCTCGG
DNA 2: CCGAGCCCC
Kd (ZFP SBS#1086): 0.1 nM

B16: GCGGTTGGT (dsDNA)
DNA 1: GCGGTTGGT
DNA 2: ACCAACCGC
Kd (ZFP SBS#1094): 12.3 nM

B17: GAGGCCGAA (dsDNA)
DNA 1: GAGGCCGAA
DNA 2: TTCGGCCTC
Kd (ZFP SBS#1097): 0.77 nM

B18: GCGGCAGCG (dsDNA)
DNA 1: GCGGCAGCG
DNA 2: CGCTGCCGC
Kd (ZFP SBS#1077): 6.2 nM | Kd (ZFP SBS#1076): 4.1 nM

B19: CTGGAGGCG (dsDNA)
DNA 1: CTGGAGGCG
DNA 2: CGCCTCCAG
Kd (ZFP SBS#1080): 1.37 nM

B20: GGATTGGCT (dsDNA)
DNA 1: GGATTGGCT
DNA 2: AGCCAATCC
Kd (ZFP SBS#1072): 0.46 nM | Kd (ZFP SBS#1073): 1.37 nM

B21: CTGGTGGCA (dsDNA)
DNA 1: CTGGTGGCA
DNA 2: TGCCACCAG
Kd (ZFP SBS#1083): 0.152 nM
